Biological target: actin (skeletal muscle thin filament) (mouse (endogenous in psoas myofibrils)) (UniProt P68134)
Test: cryo-EM structure

Substance: nebulin (from UniProt E9Q1W3 1-7152) (natural protein)
- stoichiometry, nebulin simple repeat to actin subunit: 1

From paper doi:10.1101/2021.10.06.463400
